Target: T1, EngHD (Engrailed homeodomain, DNA-binding domain) (Drosophila melanogaster) (UniProt P02836)
T1 sequence: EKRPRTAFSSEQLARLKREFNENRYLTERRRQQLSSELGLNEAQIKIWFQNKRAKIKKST
Assay: FCS
Conditions: ~1 nM Alexa 488-EngHD with unlabeled dsDNA titrated, ionic strength 50 mM (NaCl) unless stated, buffer, pH and temperature not in the material

Row | Substance | Kd [nM] | Kd (upper estimate, text: sub-nM) [nM]
1 | CCATGGTTCTTAACCAAATTGAATTCTCGCCACCGATCGTGTTCGCCCGAAATAAATCTGGCCGAAAAGCCATCAATCTACAATCTAACTGTGCCTCGGTTTATACCTCCAACTGCCGTTCACCGAAAAGGCCGACAGTTTTCCGACAAAGACAAATTCTTAACCAAATTGAATTCTCGCCACCGATCGTGTTCGCCCGAAATAAATCTGGCCGAAAAGCCATCAATCTACAATCTAACTGTGCCTCGGTTTATACCTCCAACTGCCGTTCACCGAAAAGGCCGACAGTTTTCCGACTAATTGTTCTTAACCAAATTGAATTCTCGCCACCGATCGTGTTCGCCCGAAATAAATCTGGCCGAAAAGCCATCAATCTACAATCTAACTGTGCCTCGGTTTATACCTCCAACTGCCGTTCACCGAAAAGGCCGACAGTTTTCCGACTTCTTAACCAAATTGAATTCTCGCCACCGATCGTGTTCGCCCGAAATAAATCTGGCCGAAAAGCCATCAATCTACAATCTAACTGTGCCTCGGTTTATACCTCCAACTGCCGTTCACCGAAAAGGCCGACAGTTTTCCGACAAAGACAAAAAGCTT (double strand) [600 bp TAATTG] | 2.2 | 
2 | full beta3-tubulin gene 7219 bp |  | < 0.7

From paper PMC6987225
